Test results reported in paper PMC12375101.

Tests used:
[1] = target: Aurora A (UniProt O14965); assay: GST-Aurora A pull-down of MBP-Bora; conditions: reference: unphosphorylated MBP-Bora; sites S59
[2] = target: Aurora A (UniProt O14965); assay: Myc co-IP, Aurora A immunoblot; conditions: reference: wild type Bora-Myc; sites S59
[3] = target: Aurora A (UniProt O14965); assay: GFP co-IP, Aurora A immunoblot; conditions: reference: wild type Bora-GFP; sites S59
[4] = target: Aurora A (UniProt O14965); assay: co-IP of Bora-GFP, Aurora A immunoblot; conditions: reference: wild type Bora-GFP; sites S59

binding against the reference [1] | binding against the reference [2] | binding against the reference [3] | binding against the reference [4] | Substance
stronger |  |  |  | Bora (from UniProt Q6PGQ7) MBP-Bora-S59ph (genetic code expansion)
 | weaker | weaker | weaker | Bora (from UniProt Q6PGQ7) S59A
